Reference: patent US20240252631A1, “METHODS OF USING ACTIVIN RECEPTOR TYPE II SIGNALING INHIBITORS” (Keros Therapeutics, Inc., priority 2021, published 2024)
“Also recorded” adds a separate entry of the source. Blank lines part the entries; values can stand above or below the molecule they belong to.

Experiments:
C57BI/6 mice [1] = experiment: ActRIIA/B-mFc in combination with ruxolitinib (ruxolitinib-induced anemia); assay type: in vivo, mouse
Protocol: To examine whether treatment with ActRIIA/B-mFc can overcome ruxolitinib-induced anemia, a pharmacological assessment was conducted in mice. Ten- to twelve-week-old, female, C57BI/6 mice were dosed orally with either vehicle (n=10) or ruxolitinib at 90 mg/kg (n=20) or 120 mg/kg (n=20) twice daily. After 37 days of ruxolitinib therapy, blood was sampled via cheek bleed for hematological assessment. On Day 41, mice from each ruxolitinib dose were divided into two groups that received either TBS (vehicle) (n=10) or ActRIIA/B-mFc (7.5 mg/kg, n=10 per group), IP twice weekly for 14 days concomitant to continued ruxolitinib dosing. Hematological parameters were assessed in whole blood with the use of a Heska Element HT5 veterinary hematology analyzer.

ActRIIB = ActRIIB (Homo sapiens, UniProt Q13705); settings: Townson et al., J. Biol. Chem. 287:27313, 2012; cited from earlier work
[2] = tested on: Bone marrow cells from 11-week-old C57BI/6 mice; experiment: Ex-vivo treatment of bone marrow cells, ploidy of megakaryocyte precursors by flow cytometry; assay type: cell-based, mouse; settings: six days
Protocol: Bone marrow cells from 11-week-old C57BI/6 mice were isolated and treated with Activin A ([…]), ActRIIA/B-mFc ([…]), or a combination of both for six days. Cells were harvested after six days and analyzed using flow cytometry (N=2).

[3] = Activity in vivo of ActRIIA variant substituted at X17; settings: substitution of alanine (A) for lysine (K) at X17
C57BI/6 mice [4] = experiment: Effect of a single dose of ActRIIA/B-mFc on platelet numbers at day 37, 51 and 85; assay type: in vivo, mouse; settings: single dose 10 mg/kg subcutaneous
Protocol: Eleven-week-old C57BI/6 mice were given a single dose of either TBS (vehicle) or ActRIIA/B-mFc (10 mg/kg) via subcutaneous administration. Separate cohorts of mice from both dosing groups were sampled for whole blood at study day 37, 51 and 85, and platelet counts were determined using a veterinary hematology analyzer (Heska Element HT5).

C57BI/6 mice [5] = experiment: Effect of ActRIIA/B-mFc on megakaryocyte maturation (CD41+ cells and ploidy by flow cytometry); assay type: in vivo, mouse; settings: 10 mg/kg, bone marrow
Protocol: Eleven-week-old C57BI/6 mice were dosed with either TBS (Vehicle) or ActRIIA/B-mFc (10 mg/kg) via IP administration. Twelve and twenty-four hour later mice were euthanized and bone marrow extracted from the femurs. Bone marrow cells were fixed in ethanol following by a staining with Propidium lodide (PI) and anti CD41 (FITC, Efferet) antibody in parallel with RNAse treatment. Samples were analyzed by flow cytometer (Cytoflex, Beckman coulter). Ploidy of CD41+ nucleated cells (PI+ cells) was analyzed. Graphs represent % cells at each ploidy stage. For 12HR N=3 and for 24HR N=2. For CD41+ cells at 12HR time point a t-test was performed for statistical analysis. Data are presented as mean±SEM.

C57BI/6 male mice = experiment: Effect of an anti-activin A antibody on platelet numbers 24 hours post-dose; assay type: in vivo, mouse; settings: intraperitoneal, anti-activin A 5 mg/kg, ActRIIA/B-mFc 10 mg/kg, vs TBS
Protocol: Ten-week-old C57BI/6 male mice were dosed with either TBS (vehicle), anti-activin A antibody (described in WO2008031061A2, 5 mg/kg), or ActRIIA/B-mFc (10 mg/kg) via intraperitoneal administration. Twenty-four hours post-dose whole blood was sampled, and platelet counts were determined using a veterinary hematology analyzer (Hematrue).

C57BI/6 mice [6] = experiment: Effect of ActRIIA/B-mFc on platelets and bone marrow megakaryocyte progenitors 12 hours post-dose; assay type: in vivo, mouse; settings: single dose 10 mg/kg IP
Protocol: Eleven-week-old C57BI/6 mice were dosed with either TBS (Vehicle) or ActRIIA/B-mFc (10 mg/kg) via intraperitoneal (IP) administration. Twelve hours post-dose whole blood was sampled, and platelet counts were determined using a veterinary hematology analyzer (Heska Element HT5). Mice were then euthanized, and bone marrow extracted from the femurs. Bone marrow cells were stained with antibodies against Lineage (Perc-Cy5), sca1 (BV525), cKit (Alexa750), CD41 (APC) and CD150 (Pcy7) and analyzed on flow cytometer (Cytoflex, Beckman coulter). Megakaryocyte progenitors were gated on Lin−; sca1−; ckit+; CD150+; CD41+ cells.

[7] = tested on: mouse model of immune thrombocytopenia; experiment: Platelet recovery following anti-GP1bα platelet depletion; assay type: in vivo
Protocol: Twelve-week-old mice were treated with either anti-GP1bα (0.08 mg/kg, Efferet) or IgG control. At day 4 after treatment, the anti-GP1bα treated group was further divided to receive either vehicle or ActRIIA/B-mFc (7.5 mg/kg) treatment. Platelets were measured at indicated time points post anti-GP1bα dosing. At day 10 post-treatment, mice were euthanized and bone marrow cells were harvested. Bone marrow cells were fixed in ice-cold 100% ethanol and stained with Propidium lodide (PI) (200 μg/mL, Sigma-Aldrich) and anti-CD41 (FITC conjugated, Emfret Analytics) antibody in parallel with RNase treatment (2 mg/ml, Invitrogen). Samples were analyzed by flow cytometer (Cytoflex, Beckman coulter) and % CD41+ nucleated cells (PI+ cells) was measured.

[8] = tested on: TPO^high model of myelofibrosis; experiment: TPO^high model of myelofibrosis: platelets, red blood cell parameters, spleen weight, immune cells; assay type: in vivo, mouse
Protocol: The TPO^high model of myelofibrosis induces a myelofibrotic-like pathology through elevated exposure to thrombopoietin, the native endocrine inducer of megakaryocyte progenitor proliferation and development. Seven-week-old C57BI/6 albino mice (B6(Cg)-Tyr, Jackson Laboratory) were teil-vein injected with 0.75 mg/kg thrombopoietin (TPO) expressing plasmid cloned into pLEV113 plasmid (Lake Pharma). The injection was done in hydrodynamic approach in which 100 ml/kg volume is injected in a short period of time (6-10 seconds). On day 3 after TPO injection mice were divided into 2 groups receiving either vehicle (TBS) or ActRIIA/B-mFc (7.5 mg/kg), twice weekly. Mice were sacrificed on day 14 after TPO injection. Hematological parameters were measured using the Heska Element HT5 veterinary hematology analyzer.

[9] = ruxolitinib alone, 90 or 120 mg/kg orally twice daily, after 37 days
[10] = 7.5 mg/kg IP twice weekly for 14 days, continued ruxolitinib
[11] = 7.5 mg/kg twice weekly from day 3, day 14 after TPO injection

ActRIIB, sequence (Q13705 19-512, species assumed): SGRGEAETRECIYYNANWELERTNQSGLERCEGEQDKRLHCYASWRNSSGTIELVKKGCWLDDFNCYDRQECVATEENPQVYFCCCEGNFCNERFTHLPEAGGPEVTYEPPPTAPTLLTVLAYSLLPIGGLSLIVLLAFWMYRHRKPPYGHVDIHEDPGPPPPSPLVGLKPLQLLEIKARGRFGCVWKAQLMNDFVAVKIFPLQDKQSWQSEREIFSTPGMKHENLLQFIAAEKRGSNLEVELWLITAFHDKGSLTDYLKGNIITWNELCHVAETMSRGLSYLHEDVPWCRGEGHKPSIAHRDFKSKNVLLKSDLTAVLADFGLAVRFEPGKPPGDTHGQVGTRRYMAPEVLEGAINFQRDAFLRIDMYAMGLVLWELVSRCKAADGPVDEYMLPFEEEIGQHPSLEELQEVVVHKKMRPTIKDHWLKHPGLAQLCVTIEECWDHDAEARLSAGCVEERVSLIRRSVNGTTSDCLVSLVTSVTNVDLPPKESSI

- RBC volume (C57BI/6 mice [1]; [9]): reduced
- hematocrit (C57BI/6 mice [1]; [9]): reduced
- hemoglobin (C57BI/6 mice [1]; [9]): reduced
Molecule: N#CC[C@H](C1CCCC1)n1cc(-c2ncnc3[nH]ccc23)cn1 [ruxolitinib, reference compound]

Molecule: BMP9: bone morphogenetic protein, ligand in the TGF-β superfamily
- binding affinity for ActRIIB relative to ActRIIA (ActRIIB): about 300 fold

B1: activin A: ActRII ligand of the TGF-β superfamily used to treat bone marrow cells ex vivo (protein, UniProt P08476 311-426, looked up)
Inhibin beta A chain: GLECDGKVNICCKKQFFVSFKDIGWNDWIIAPSGYHANYCEGECPSHIAGTSGSSLSFHSTVINHYRMRGHSPFANLKSCCVPTKLRPMSMLYYDDGQNIIKKDIQNMIVEECGCS
- 2N ploidy levels ([2]; Activin A (5 mg/kg)): increased
- extent of polyploidy (higher ploidy levels) ([2]; Activin A (5 mg/kg)): reduced

B2: SEQ ID NO: 85: ActRIIA variant with substitution of alanine (A) for lysine (K) at X17 (protein)
chain: GAILGRSETQECLFYNANWELERTNQTGVERCEGEKDKRLHCYATWRNISGSIEIVAKGCWLDDFNCYDRTDCVETEENPQVYFCCCEGNMCNEKFSYFPEMEVTQPTS
- activity in vivo [3]: reduced activity

B3: ActRIIA/B-mFc: SEQ ID NO: 69 fused to a mouse Fc domain by way of a linker (protein)
chain: GAILGRSETQECLFYNANWELERTNQTGVERCEGEKDKRLHCYATWRNISGSIEIVKKGCWLDDFNCYDRTDCVETEENPQVYFCCCEGNMCNEKFSYFPEMEVTQPTS
modifications: left off: a dimerising Fc or GST
- duration of increased circulating platelets after a single dose (C57BI/6 mice [4]): at least 85 days
- circulating platelets (C57BI/6 mice [4]; day 37, 51 and 85): increased
- number of CD41+ megakaryocyte progenitors (C57BI/6 mice [5]; 12 hours after treatment): increase
- number of polyploid megakaryocytes (C57BI/6 mice [5]; by 24 hours): increase
- platelets in wild-type mice (C57BI/6 male mice): increased
- bone marrow megakaryocyte progenitors (C57BI/6 mice [6]; Lin-, sca1-, ckit+, CD150+, CD41+ cells): increased
- circulating platelet numbers (C57BI/6 mice [6]; vs TBS vehicle): increased
- ruxolitinib-associated reduction in RBC volume (C57BI/6 mice [1]; [10]): abrogated
- ruxolitinib-associated reduction in hematocrit (C57BI/6 mice [1]; [10]): abrogated
- ruxolitinib-associated reduction in hemoglobin (C57BI/6 mice [1]; [10]): abrogated
- body weight in mice treated with ruxolitinib (C57BI/6 mice [1]; ActRIIA/B-mFc 7.5 mg/kg IP twice weekly for 14 days with ruxolitinib 90 or 120 mg/kg twice daily): increased
- activin-mediated changes in megakaryocyte precursors (ploidy) ([2]; ActRIIA/B-mFc (10 mg/kg) with Activin A (5 mg/kg)): reversed
- recovery of platelet numbers following platelet depletion ([7]; 7.5 mg/kg at day 4 after anti-GP1bα (0.08 mg/kg), compared to vehicle treated mice): accelerated recovery
- increase in the number of CD41+ megakaryocyte progenitors in the bone marrow compared to the vehicle-treated group ([7]; 7.5 mg/kg, day 10 after platelet depletion): 25%
- 4N ploidy level ([7]; 7.5 mg/kg, day 10 after platelet depletion, vs vehicle): higher
- RBC metrics (red blood cells, hemoglobin, hematocrit, mean corpuscular hemoglobin concentration) [8, 11]: significant improvement
- TPO-mediated increase in lymphocytes [8, 11]: reduced
- TPO-mediated increase in white blood cells [8, 11]: reduced
- development of anemia [8, 11]: reduce
- expansion of platelets [8, 11]: significant attenuation; also recorded: attenuated
- splenomegaly [8, 11]: significant reduction
- splenic extra medullary hematopoiesis ([8]; inferred from splenomegaly, 7.5 mg/kg twice weekly, day 14): reduced
